Laboratory results as given in the supplement of paper PMC9732359.
± gives the uncertainty stated by the source.

Experiment: protein stability index of a GFP-peptide fusion (yeast GPS) (PSI 1-4); higher = more stable; sorted into four equal gates, so the index is relative within each strain
Procedure, shortened: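 Sequencing reads from sorted gates were used to score each peptide. The library consisted of tiled 17-residue yeast protein peptides fused downstream of GFP on a Cherry-expressing plasmid, pooled and carried in yeast. Mid-log cultures in leucine-free medium were split into four equal gates by GFP/Cherry ratio, and each gate's plasmids were PCR-amplified and Illumina-sequenced. The protein stability index adds up, over all gates, the read frequency multiplied by the gate number.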

Row | Sequence | protein stability index (doa10∆) | protein stability index (pdr5∆) | protein stability index (san1∆) | protein stability index (ubr1∆)
1 | TFSWLNAELLDYLFHLL [YLR018C/POM34] | 1.64 ± 0.075 | 1.47 ± 0.039 | 1.46 ± 0.14 | 1.4 ± 0.044
2 | NAAVAGVANTDTAGEES [SWI3] | 3.06 ± 0.061 | 3.27 ± 0.062 | 3 ± 0.046 | 3.15 ± 0.056
3 | VSNENKKNIDYQNRSTR [RRI1] | 3.13 ± 0.065 | 3.04 ± 0.067 | 3.2 ± 0.062 | 3.25 ± 0.055
4 | DELCKLVTCEGSEEKAF [SRP54] | 2.92 ± 0.18 | 2.3 ± 0.18 | 1.95 ± 0.18 | 2.25 ± 0.13
5 | HIMEPCIECQPKAMTDT [HRT1] | 3.13 ± 0.13 | 3.25 ± 0.091 | 2.94 ± 0.11 | 3.29 ± 0.077
6 | MSSAAEKKPASKAPAEK [HTB2] | 2.74 ± 0.064 | 3.3 ± 0.081 | 2.69 ± 0.08 | 2.91 ± 0.054
7 | YNTNFNLLLRELNVEKL [SRP72] | 2.9 ± 0.091 | 3.18 ± 0.11 | 2.89 ± 0.089 | 3.26 ± 0.056
8 | FEGTPPFSLTYVRTEET [YMR129W/POM152] | 2.31 ± 0.052 | 2.63 ± 0.056 | 2.54 ± 0.059 | 2.6 ± 0.041
9 | PLELSAPIGKHYVVLDT [DIS3] | 2.83 ± 0.1 | 2.78 ± 0.14 | 2.63 ± 0.086 | 2.39 ± 0.11
10 | VEITFGKEFGDVSVKMG [RRP45] | 1.38 ± 0.073 | 1.68 ± 0.083 | 1.32 ± 0.19 | 1.79 ± 0.12
11 | YMKFSNKYLELCKLASN [RRI2] | 1.64 ± 0.05 | 1.87 ± 0.039 | 1.57 ± 0.092 | 1.76 ± 0.037
12 | ERLKQLTPNEIKELEHL [SWP82] | 2.83 ± 0.064 | 2.84 ± 0.083 | 2.73 ± 0.049 | 2.7 ± 0.054
13 | NQDSVKTYALESINNVV [RPN2] | 3.23 ± 0.1 | 3.21 ± 0.1 | 2.95 ± 0.074 | 3.31 ± 0.058
14 | FSKGDADVLVDRVVSSD [SRP72] | 3.28 ± 0.091 | 3.2 ± 0.098 | 3.02 ± 0.098 | 3.04 ± 0.081
15 | IKKFAKLHMGTEDVRLA [RPL31B] | 3.21 ± 0.21 | 3.21 ± 0.22 | 2.71 ± 0.15 | 2.73 ± 0.14
16 | LPTPTPTEMEPDLDTEC [SWI1] | 2.92 ± 0.05 | 3.09 ± 0.05 | 2.77 ± 0.048 | 2.94 ± 0.032
17 | SSDDRVKVLAATNRVDV [RPT5] | 2.66 ± 0.18 | 2.95 ± 0.26 | 2.88 ± 0.15 | 
18 | VLPNTALKTSIQHVGMI [FAS1] | 2.95 ± 0.12 | 2.6 ± 0.16 | 1.93 ± 0.14 | 2.4 ± 0.24
19 | LDSNFNLQREIDQAHVS [RPN14] | 2.49 ± 0.045 | 2.75 ± 0.061 | 2.56 ± 0.059 | 2.65 ± 0.054
20 | DSTPEEVSCKLLETITY [YML103C/NUP188] | 2.47 ± 0.077 | 2.82 ± 0.086 | 2.47 ± 0.075 | 2.79 ± 0.092

Row | Sequence | protein stability index (doa10∆) | protein stability index (pdr5∆) | protein stability index (san1∆) | protein stability index (ubr1∆)
21 | SYYGIVCLMQISTRERD [RRP6] | 1.96 ± 0.12 | 1.41 ± 0.081 | 1.21 ± 0.16 | 1.39 ± 0.09
22 | LESLKPIDDTMTLLTDS [MTW1] | 3 ± 0.092 | 2.95 ± 0.054 | 3.04 ± 0.058 | 2.98 ± 0.046
23 | GQCRPISKTVRFNVVKV [RPS11A] | 3.31 ± 0.12 | 2.93 ± 0.22 | 2.76 ± 0.097 | 2.77 ± 0.1
24 | ETALEFLEKEKQLTLLR [SMC4] | 3.46 ± 0.1 | 2.65 ± 0.074 | 2.66 ± 0.12 | 2.92 ± 0.058
25 | VDFEKFETFLVDVNNKF [SIN4] | 3.23 ± 0.07 | 3.34 ± 0.059 | 3.51 ± 0.037 | 3.31 ± 0.052
26 | RKLEISSRFKHRQEIFK [GAL11] | 2.76 ± 0.064 | 3.1 ± 0.061 | 3.01 ± 0.059 | 3.09 ± 0.051
27 | ELNVDSMDVDDKNSGVK [ITC1] | 1.97 ± 0.1 | 1.27 ± 0.042 | 1.68 ± 0.1 | 1.43 ± 0.06
28 | RKQIQLLKKIIFEKELM [SRB4] | 1.93 ± 0.051 | 2.14 ± 0.047 | 1.86 ± 0.071 | 2.03 ± 0.034
29 | DLTRVYKAISAQADKQD [FAS2] | 1.54 ± 0.054 | 1.72 ± 0.049 | 1.74 ± 0.1 | 1.75 ± 0.044
30 | PAWRVWLNFLRGTIPLL [PRP8] | 2.38 ± 0.089 | 1.88 ± 0.071 | 1.33 ± 0.1 | 2.96 ± 0.083
31 | EDYAIVTKGGTVENPLR [PRP28] | 3.47 ± 0.16 | 2.98 ± 0.099 | 3.39 ± 0.055 | 3.44 ± 0.078
32 | QTNIWEENWDDVEVDDD [SEM1] | 3.27 ± 0.16 | 3.28 ± 0.09 | 3.37 ± 0.082 | 3.38 ± 0.13
33 | LKLNTSLPSKLTKYKEM [SRP68] | 1.77 ± 0.075 | 1.74 ± 0.065 | 1.58 ± 0.1 | 1.95 ± 0.053
34 | TENAIEEKVIERAAQKL [ISW2] | 2.61 ± 0.095 | 2.74 ± 0.17 |  | 2.79 ± 0.051
35 | KLIKFETRNEDDVVVLT [FAS1] | 3.32 ± 0.17 | 2.93 ± 0.13 | 3.07 ± 0.063 | 3.12 ± 0.16
36 | ESGKVFIGRLPIMLRSK [RPB2] | 2.83 ± 0.1 | 2.67 ± 0.062 | 2.94 ± 0.08 | 2.79 ± 0.058
37 | EAEMAYVKAVSDKAQLN [SMC4] | 2.62 ± 0.062 | 2.33 ± 0.052 | 2.2 ± 0.072 | 2.26 ± 0.05
38 | NSESDSKSDSDSEERDP [ITC1] | 3.14 ± 0.14 | 2.99 ± 0.2 | 3.01 ± 0.12 | 3.22 ± 0.12
39 | KNAAESSYMGKHWTEKS [PRP28] | 3.17 ± 0.12 | 3.24 ± 0.17 |  | 3.46 ± 0.11
40 | GLFGANSNSNSGSLFGS [YGL172W/NUP49] | 1.31 ± 0.13 | 1.7 ± 0.14 | 1.05 ± 0.25 | 1.41 ± 0.21
